Experiment: soluble fraction after stress (log2 fold change); higher = more stays soluble; pooled small domains, quantitative proteomics
Details: stress: 50 degC
Method in brief: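 Custom libraries of small protein domains were pooled and measured in a high-throughput format, with quantitative proteomics as the read-out. Each library was stressed at 50°C. The value is the log2 fold change in the amount of each protein that stays soluble after stress, used as a measure of aggregation propensity; higher values mean more of the protein stays soluble.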

Sequence | soluble fraction (log2)
HMNAVYAEERRAYILAALEKRGTVHSYELAEQMGVSRETIRRDIMELSNRGLLVKTHGGAIST | -0.686
HMNAYEVLIPNIYIGQRVDQTLASLFPQFSRSRLQNWLARGNLLIDGEIIKPKTKVLGGEQIIILDT | -1.83
HMNDAEEKAEAIEGVKNFMANMEKTDIDFKSKESVLLEQVEEIRKNYPVAQWPVIVKQLYNNIGRL | 0.159
HMNDIDKFVAALVDQDTMAGTNRAFDENDIQTMKNMSSIEDVKQYAVANGLSSGKVNNALISAGL | 0.156
HMNDIQIILQEAVARLPKKQQLVFNMKYFDHLKYQEISEILGTSVGGLKASYFQAVKKIENYIINKH | -2.38
HMNDRLFQILYLLLEKGTMTAPELSRALEVSVRTIYRDIDALSLAGVPVYATQGKNGGVSLLPNY | -1.24
HMNDTLQEYFEALERLKSNNPINVPKNTKINNDSVALEAGRKRGSIKKSREIFAELIEAINNAS | -0.0859
HMNDVEAIDDALKDLHKVSPDLAALVEMKFFGGMTEPEISEILGVSERTVRREWEKARAALLVLLE | -1.41
HMNDVHELPYSSFIEMVERGHVISVTVKHINIEFESTKNENYRTIAPQAMTPPYLELLLKNKDSVKVTFLP | -1.69
HMNDVLVGAIPESASGSRLDKVMPSVFPPYSRSQLQVWLKQGRILMGNGIPSPRLIVSGGEVLSLVVPELP | -0.971
HMNEDFSEIIAAVKKFAVDNLSLSTLSDEELEEQIKTITDNMIGNRYVSIKNRVDIAQQVFSSIR | -0.0581
HMNEMEFAQRLRQFRKAKNLTQQELADRLGVSNKSVSRWESGSYPDVGTLVALARALGVTVDELLDPKA | 0.0532
HMNEMEWVAKLIDQLPERERMILQLREIEQYEFDQIASLMEIPEGTVRVYLSRIRKKIKKQFIEIQSH | 0.0739
HMNENFPYRLKEMVVVQSRTWPGINKPGGVGQVMKINPEAGTVNVKYVLGGSEKNIELKYVTSNDLNSK | -0.536
HMNENYNLSKREKEVLDLLVNGKSYKVIATELAISYETVHSHIKKIYHKLHVSSIGEAVSKTIKQKIL | -1.58
HMNEPITIALREAEEAANKILNEGVHSVELSPQNGYVRRLQHELIARYGLTSASRGSDPSRRVSVGAN | -0.212
HMNEQKVSSLLTPRQLAFIDEYLIDFNGAQAAIRAGYSHKTAGPQAARLLVNVNISRMIAERIEARNK | -1.7
HMNEQVAVVSGSQVNVRSGPGTTSAVVGQVSKGDNLPVLNQSGDWYQIKLPGGNAGWVAGWLVSLRPTT | -0.0873
HMNESPVLAVLTPTERKVASLVAEGLTNQAIAARMILAEGTVKNHVSTLLHKLQAPDRTALALTLYKAFQ | -0.469
HMNETRVDQAADLLLALLEKEPKSAAEILDEFEQAGFSKSGLYRAKDALGVVSIRKEGRWVWSLPHSLD | -0.104
HMNEYIVSAEQEGMRLDVFLTEQMEGSRSYIQSLIKGGHVTVGDKVGKANLRLTPDTVIHVEIPEPE | 0.0524
HMNEYLPEAVQKLLEVMEYDIPYTSNELMERLGLKAKEGFRRNYLHPAMEMKLIQMTIPDKPNSRNQRYLR | -2.11
HMNFHLEHHIAELLYRSIRGELSDFERQELNQWRSDSPMHETLFMRLQDDEYIDEELGVFIK | -1.99
HMNFKNMIDSLSGILFKKDPSAAIIDIGGVRLKVFITVGSYEQLPAKGEQVEILTYLHVKEDILNLYG | -0.242
HMNFMDGFQSFFQESGAMNRPMTADVVSYRLPDGTVQQGNSTMRGLMDQYLKSIGQSPTTGVP | 0.00775

Sequence | soluble fraction (log2)
HMNFRESVLAVFENSKQKYLDFDEIAKRLGLTRGFDRQALASMLNELTRNDEIVFTKRNKYTLPEN | 0.125
HMNGAVAEQARKQLMAALKASEFIAEEKLDEWLDALALPEDKRTAIVDAVDELDYEEAISELEN | 0.0153
HMNGDYFEYRYAVNGSRSTPPSLSKTSRNPSGWSTTVPTVGNLQYLWFTVAKINGETNSLIQNWSTPARQT | -0.13
HMNGEAQTMYVTARTLNVRKGPGTSYAKAGTLSRGTAVQVVGFSGNWAKLSNGYYVSTSYLAKI | -1.32
HMNGKWKLRIIKELLHSNIRFGQILKNIPDISPKVLSQQLKEMEEDGIIERIVISEMPPNVEYVLTDMGE | -0.789
HMNGLNISYRMDGENVVETIVFPDATMIRTIAPNGVMTIKTIEDGSVSTSELKADYKLYKKIYESQY | -0.262
HMNGSVLVTGGSVWIRAGASKETDGLGIVHKGDVLKRSGSDASGWRGVVYEGQNAFISAKYSSI | -0.916
HMNGTEAIRRYIDQFASKHATTPRMLKLNERKQLIQELKNNGLLEIKKAVETVAQHLGISRASAYLYVKE | -0.303
HMNGVPDMSPVPEGARNSTLHAWAFGRLKNHPDNETGIREDLFRRGHASGLQDAELDQIWKSIKRTL | 0.0847
HMNGVSNETLIQKSALYEELNQPDLALKMINTALKKDSVNIEILHRLVTLLMSQEKNEEAILYNQKIIDH | 0.022
HMNHSITLTERKNLLITGVKKIENFDKEEFLIETTMGFLVVKGDGLELIKLDTISGNVSIKGIVNGFTYID | 0.223
HMNIAAVIGQTGVLQDDLKAGEQGTVKADNKLWTAVLAEGEEAVKKEERVDIVAVEGVKLIVRRNI | 0.0397
HMNIDEIFLTKNEIYFSFEYQKKSQLDRYSKIISLDHRIDKNTAYAYANKKQFLNFINLNIDYKIIDNSF | -2.65
HMNIDEIIGKKAVVIESIDNLQGTGKVRYQGMEWTARAEEENDRIEKDAEVEIIAVKGVKLIVKMK | -0.13
HMNIDNTWQPSEDVVEILTRSGINEDFINELIPEFIVYWTERPGTLVSYNSKFIEHVRLKWAQHSAEI | 0.0597
HMNIDVAAEKQQLGPNADQIVKGTVTWMQGLVAKGIWSETDFEEGKIFTATADGINAINKIRRYYGEQT | -0.0611
HMNIEDFKDKVKELKQYTYQELVEDVKLKTDRADVILPASKIYLEAMQQAKVDSIIVPKVGLAEGVAR | 0.0593
HMNIEEQVVAEVLVKDFMKQLTPRDIHILELRKNGYTYQEIAGQLGYHTHSAVKKRVDRLAEQWLAYTQGH | -1.53
HMNIFAHQIGKLRTERHLSQTDVAKRLYVSRQAVSKWENGDAEPSLDNLIALAKLFNVSLDNLITGQ | -0.49
HMNIGVEQIEQMERGALITLWQELIDKPLPRHMSIVFLRQVLAFEVQSKQNGGLPRGFITLLNKQAD | -0.824
HMNIKITKSKNSEHYSIIYNTKINGKRTSKIYENIGNFEKLKLRAGEQEPIEWLKNYVSELNKKQKEDT | 0.109
HMNIKYDFPTNSPLEMMRNLFDSNSQIINDLKDGFAMANSLNEQGLANFFAERIDKHQFWSWQLSASL | -0.399
HMNILDPTVMKNILDKNHEEFIAIYESAPLGQKTIINSMVFDKRLNGENVDANILMYLQNKTNIDYINIEP | -0.167
HMNILNYIIENENQEVRVDKFLSDTIEDMSRSSVASIIEDGGLLVNDKLQNKKYKLKIGDKVQFTVPDPV | 0.113
HMNILVAISDTGEIWINKRRVDARAVQANIERLHAENPQGTVVIQADKQATTETLIKVMDASRAAGVFDVS | -0.618

Reference: the domain aggregation screens of Martell et al. (2025)
